Measurements as given in patent US8119117.

Target: CD40 receptor on dendritic cells (mouse) (UniProt P27512)
Test: cell-based or functional assay

Sequence of UniProt P27512 (P27512 20-289): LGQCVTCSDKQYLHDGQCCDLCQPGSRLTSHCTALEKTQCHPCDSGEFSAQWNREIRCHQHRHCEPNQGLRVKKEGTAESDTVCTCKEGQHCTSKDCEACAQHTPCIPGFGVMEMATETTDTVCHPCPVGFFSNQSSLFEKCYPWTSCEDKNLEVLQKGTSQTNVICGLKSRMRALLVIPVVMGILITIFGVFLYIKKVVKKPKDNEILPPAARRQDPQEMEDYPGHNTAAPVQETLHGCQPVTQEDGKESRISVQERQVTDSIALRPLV

“E7-ΔCtΔTmCD40L fusion protein (secreted; HPV type 16 E7, 10 amino acid linker, murine CD40 ligand residues 52-260) (from UniProt P03129 1-98; P27548 52-260)” was tested, and the IFN-γ released by DCs exposed to the vector (ELISA), first 24 hours was 335 pg, the IL-12 produced by DCs exposed to the vector (ELISA), 24 h (pg/2×10^5 cell/ml/24 h) was 18 and the IL-12 produced by DCs exposed to the vector (ELISA), 48 h (pg/2×10^5 cell/ml/48 h) was 88.
